In IntAct's records for PubMed 25332407:

B1: Nuclear distribution protein nudE homolog 1 (Homo sapiens), Q9NXR1 (parent)
chain: MEDSGKTFSSEEEEANYWKDLAMTYKQRAENTQEELREFQEGSREYEAELETQLQQIETRNRDLLSENNRLRMELETIKEKFEVQHSEGYRQISALEDDLAQTKAIKDQLQKYIRELEQANDDLERAKRATIMSLEDFEQRLNQAIERNAFLESELDEKENLLESVQRLKDEARDLRQELAVQQKQEKPRTPMPSSVEAERTDTAVQATGSVPSTPIAHRGPSSSLNTPGSFRRGLDDSTGGTPLTPAARISALNIVGDLLRKVGALESKLASCRNLVYDQSPNRTGGPASGRSSKNRDGGERRPSSTSVPLGDKGLDTSCRWLSKSTTRSSSSC

Variants of: B1
Settings: with 1433e_human YWHAE

Variant	effect of a mutation on the interaction
MEDSGKTFSSEEEEANYWKDLAMTYKQRAENTQEELREFQEGSREYEAELETQLQQIETRNRDLLSENNRLRMELETIKEKFEVQHSEGYRQISALEDDLAQTKAIKDQLQKYIRELEQANDDLERAKRATIMSLEDFEQRLNQAIERNAFLESELDEKENLLESVQRLKDEARDLRQELAVQQKQEKPRTPMPSSVEAERTDTAVQATGSVPATPIAHRGPSSSLNTPGSFRRGLDDSTGGTPLTPAARISALNIVGDLLRKVGALESKLASCRNLVYDQSPNRTGGPASGRSSKNRDGGERRPSSTSVPLGDKGLDTSCRWLSKSTTRSSSSC [S214A]	with no effect
MEDSGKTFSSEEEEANYWKDLAMTYKQRAENTQEELREFQEGSREYEAELETQLQQIETRNRDLLSENNRLRMELETIKEKFEVQHSEGYRQISALEDDLAQTKAIKDQLQKYIRELEQANDDLERAKRATIMSLEDFEQRLNQAIERNAFLESELDEKENLLESVQRLKDEARDLRQELAVQQKQEKPRTPMPSSVEAERTDTAVQATGSVPFTPIAHRGPSSSLNTPGSFRRGLDDSTGGTPLTPAARISALNIVGDLLRKVGALESKLASCRNLVYDQSPNRTGGPASGRSSKNRDGGERRPSSTSVPLGDKGLDTSCRWLSKSTTRSSSSC [S214F]	decreasing interaction strength

Further lines, results first:

effect of a mutation on the interaction	Variant
decreasing interaction strength	MEDSGKTFSSEEEEANYWKDLAMTYKQRAENTQEELREFQEGSREYEAELETQLQQIETRNRDLLSENNRLRMELETIKEKFEVQHSEGYRQISALEDDLAQTKAIKDQLQKYIRELEQANDDLERAKRATIMSLEDFEQRLNQAIERNAFLESELDEKENLLESVQRLKDEARDLRQELAVQQKQEKPRTPMPSSVEAERTDTAVQATGSVPSAPIAHRGPSSSLNTPGSFRRGLDDSTGGTPLTPAARISALNIVGDLLRKVGALESKLASCRNLVYDQSPNRTGGPASGRSSKNRDGGERRPSSTSVPLGDKGLDTSCRWLSKSTTRSSSSC [T215A]
with no effect	MEDSGKTFSSEEEEANYWKDLAMTYKQRAENTQEELREFQEGSREYEAELETQLQQIETRNRDLLSENNRLRMELETIKEKFEVQHSEGYRQISALEDDLAQTKAIKDQLQKYIRELEQANDDLERAKRATIMSLEDFEQRLNQAIERNAFLESELDEKENLLESVQRLKDEARDLRQELAVQQKQEKPRTPMPSSVEAERTDTAVQATGSVPSTPIAHRGPSSSLNTPGSFRCGLDDSTGGTPLTPAARISALNIVGDLLRKVGALESKLASCRNLVYDQSPNRTGGPASGRSSKNRDGGERRPSSTSVPLGDKGLDTSCRWLSKSTTRSSSSC [R234C]
